# Measurements from patent US20190049430.
# T1: OPA1 FRET substrate MCA-AFRATDHG-DNP
# T1 chain: AFRATDHG
# T2: FRET peptide MCA-ATDHGSES-Lys DNP (no RA motif)
# T2 chain: ATDHGSES
# B1: Metalloendopeptidase OMA1 (OMA1), endogenous enzyme in normal rat kidney (NRK-52E) cell lysate (protein)
# chain: AAPVPLLMLILKPVQKLLAIIVGRGIRKWWQALPPDKKALFKDSVKRNKWRLLLGLSAFGLLFVVFYFTHLEVSPVTGRSKLLLVGKEHFRLLSDLEYEVWMEEFKNDLLPEEDPRYLTVKKVVYHLTQCNQDVPGVSEINWVVHVVHSPKVNAFVLPNGQVFVFTGLLNSVTDMHQLSFLLGHEIAHAVLGHAAEKASLVHLLDFLGMIFLTMIWAICPRDSLAVLGQWIQSKLQEYMFDRPYSRTLEAEADKIGLQLAAKACVDVRASSVFWQQMEFSESLHGYPKLPEWLSTHPSHGNRAEYLDRLIPQALKLREVCNCPPLSGPDPRLLFRLTVKHLLEDSEKEDLNITVKKQKPDALPIQKQEQIPLTYALGKRTAG
# Experiments:
# [1] = biological target: T1, OPA1 FRET substrate MCA-AFRATDHG-DNP
# [2] = biological target: T2, FRET peptide MCA-ATDHGSES-Lys DNP (no …)
protein,measurement,setting,value
B1,OMA1 Activity (average slope over 30 min compared to AFRATDHG substrate),[1],100%
same,OMA1 Activity (average slope over 30 min compared to AFRATDHG substrate),[2],2.71%
